From paper PMC11387697, “Defining the functional properties of cyclopropane fatty acid synthase from Pseudomonas aeruginosa PAO1” (The Journal of Biological Chemistry, 2024)

Columns and labels:
[1] = substrate: C[S+](CC[C@H](N)C(=O)O)C[C@H]1O[C@@H](n2cnc3c(N)ncnc32)[C@H](O)[C@@H]1O; assay: purified protein; conditions: 60:40 PE 18:1/18:1:DPPG 100 nm unilamellar liposomes 1 mg/ml, HEPES pH 7.5, 37 °C
[2] = molecular target: the molecule itself; assay: native MS; native ion mobility MS; 5 uM enzyme buffer exchanged into 200 mM ammonium acetate, pH 7.5; nanoESI under gentle conditions (Waters Synapt G2-Si); collision-induced unfolding of the 20+ dimer ion at 4 to 110 V

B1: EC-CFAS (Escherichia coli K-12) (protein)
chain: SSSCIEEVSVPDDNWYRIANELLSRAGIAINGSAPADIRVKNPDFFKRVLQEGSLGLGESYMDGWWECDRLDMFFSKVLRAGLENQLPHHFKDTLRIAGARLFNLQSKKRAWIVGKEHYDLGNDLFSRMLDPFMQYSCAYWKDADNLESAQQAKLKMICEKLQLKPGMRVLDIGCGWGGLAHYMASNYDVSVVGVTISAEQQKMAQERCEGLDVTILLQDYRDLNDQFDRIVSVGMFEHVGPKNYDTYFAVVDRNLKPEGIFLLHTIGSKKTDLNVDPWINKYIFPNGCLPSVRQIAQSSEPHFVMEDWHNFGADYDTTLMAWYERFLAAWPEIADNYSERFKRMFTYYLNACAGAFRARDIQLWQVVFSRGVENGLRVAR
Protein B1 has a Km [1] of 68 µM and a kcat [1] of 0.217 s⁻¹.

B2: Pseudomonas aeruginosa PAO1 cyclopropane fatty acid synthase (PA-CFAS) (enzyme, UniProt Q9HT28 1-394, looked up)
chain: MIAQLPSELLSLQLPLRIRIGDAQAFDLGPDPQVTMVIRDPSLLTEITHPSLDALGKAYVEKRLDIEGPISQVIGIGDALSEALGEPDGGAPPVRESHDKDTDAEAIHYHYDLSNDFYQLWLDPEMVYSCAYFETGKEDLATAQLAKLRHLCRKLRLQPGEKLLDVGCGWGGLARLAAREFGVEVTGITLSKEQLALGRERVKAEGLEDRVTLKLLDYRDLPRDGRFDKVVSVGMFEHVGHANLGLYFQQLYEAVRPGGLVMNHGITSRYTDGRPVGKGAGDFIDRYVFPHGELPHLSLAVARMSEAGLEVVDVESLRLHYARTLDFWSANLEARLKEAARLVPEETLRIWRLYLAGCAYGFKRGWINLHQILAIRPHEDGSHELPWSRRDLYA
notes: Cyclopropane fatty acid synthase, gene PA5546, P. aeruginosa PAO1, amplified from the PAO1 genome and cloned into pET16b; monomer with His6 tag MWcalc = MWobs = 46,486 Da; The native-MS dimer mass (92,972 Da) is twice the tagged monomer mass, so the tag was present in the assay; also called PA5546; Pseudomonas CFAS enzyme
With B2 the “stoichiometry N” value [2] was 2.
